Laboratory results: US20210221869A1

Target: M22 antibody (thyrotropin receptor autoantibody)
Assay: M22-blocking ELISA (KRONUS kit): fusion protein in 2-fold dilutions pre-incubated with peroxidase-M22, then added to the kit plate

TSHR 21-282 D43A (N01) (Fc fusion)
IC50: 3 µg/mL
